Experimental data: the DeepSol protein solubility set

Test: soluble on expression in E. coli; label from the status in PepcDB or PDB records
In the case of “MGSDKIHHHHHHMKSAPDWIAHPDTPYLLIDEAKLKSNINYLKQRVESLGSHLRPHLKTLRTLEAAGYLLDSKSAPATVSTLAEAEAYAKAGYTDLLYAVGIAPAKLKRVAALRQQGINLHILLDNITQAQAVVDYAAEFGQDFSVFIEIDSDDHRGGIKPSDSKLLTIAKTLGEHFTGLMTHAGGSYACNTEQGLKNFAKQECDAVRIARNNLETAGIHCAITSVGSTPTAHFGEDFSDISEVRAGVYTTFDLVMKNIGVCDFSHIAMSVVTTVIGHNKEKNWLLTDSGWMALSRDSGTAGQNRDFGYGQVCKIDGSVLDGLCVNSTSQEHGVIELSDAYQLEDFPVGHQLRIMPNHACATAAMHPVYHVLMSDGSHNTWQRITGW”, the “soluble on expression in E. coli” value is reported as “not soluble”. With “MGSDKIHHHHHHMKSDTEEKYLQQVNRVIDYINSHLNEPLRVETLAREVCLSEYHFHRIMRAYLHEPLATYIARQRVERAVMYLQMKNIRLAQVAEMVGYETPQSLSKAFKQFFGISPTAYRKRRAERYEEFSTLKKESLKPEILTEPELKLVYIRIIGRYGEEEPYIEAWRKLRDFLQINGLLTPSTRWIGISFDDPTVTKTEQCRFYACATVEHDVSPQGAFGMKTIPQGRYAVYTLRGSYSGLQEMYDRIYSHPLPTAFRDATSFEEYLNCEPDTEEKDYVTRIYIPIE” the “soluble on expression in E. coli” value was “not soluble”. With “MGSDKIHHHHHHMKSPTPALMLQGTSSNAGKSILTAAFCRILLQDGYRVAPFKAQNMALNSHVTADGLELGRAQAVQAAACRLDVDVRMNPVLLKPNSDTGSQVVVMGRPVGNMRVREYMAYKPVAFDAARAAYDSLAADVDVMVLEGAGSPAEVNLKAHDIVNMAMARHAEAKVLLVGDIDRGGVFASLVGTMELLDPWERDLVAGFVLNKFRGDATLLSPAYDVVTGRTGKPFLGVVPWLHDLGLPDEDSVSFRETLAGRAPDVPAGGGMLDIVLVDLPHISNFTDLDALRREPDVAVRVVRSPEQLGSPDAIILPGSKNTLGDLAALRSRGMAEALCALRSAEGGHLGPVIVGICGGFQMMGRFLADPQGVESDHACTEAGLGLLPVTTEMGSAKVLRRTSAKTVSGWCGAGVAAGLMPGTGGGHGGAEVCPGEGYAVHGYEIHHGVTTPDAGGGAVLVCLHESDGSPAGWTTPDGQVWGTYLHGVFDADGFRRGWLDALRVRRGLEPVGRVVARYDLDPALDRLADVVREAVDMGHIYSVLGLSPKGRRQT” the “soluble on expression in E. coli” value was “not soluble”. With “MGSDKIHHHHHHMKSYRKELWFHTKRRREFINITPLLEECVRESGIKEGLLLCNAMHITASVFINDDEPGLHHDFEVWLEKLAPEKPYSQYKHNDTGEDNADAHLKRTIMGREVVIAITDRKMDLGPWEQVFYGEFDGMRPKRVLVKIIGE” the “soluble on expression in E. coli” value was “soluble”. In the case of “MGSDKIHHHHHHMKTNNSPISLLQTQNNTYNVLNNIKVHVEVRDNPYNLELDNLFQMAARINKKRSFLFVSTILGKHLPIKPAVSLASGFALAARYMEILHNTFHPFQKEILNLISLEVDEIPEEIFHYQYPLPEEVLFIGFAETATALGHSMFQCFQNAKYVHTTRESIPNLESVITFEEEHSHATSHRCYVDKSFFQNNNPIILVDDEMTTGKTALNIIRSIQQQFPREEYTIASLLDWRSNTNRRQFKQLEEELQIKIHVISLLEGRIHTTGQPLNITKTDTHIEETKPYFKKHTIICPALSYTSNYIKYTGRFGISSYEQKHIHSFAQEAGKMLQRKRIGKRTLCLGTGEFMYIPMKIAAEMGENILYQSTTRSPIHPVSNDVNYAIHNHFSYPNPEDSTITNYFYNISPHEYDEVFVFMERDVGEEALSPLLQHLQTVIPCIHIVSFSNSIEKEG”, the “soluble on expression in E. coli” value is reported as “not soluble”. In the case of “MGSDKIHHHHHHMKVKDLLNITDEDELKKYRVFRALSRFNYFPNQKQAIGELPDCFTTSSLTPEVCLRLLSGGIDNKRKNTGFAPVEYKSTRYNNIPRVLSLVHPVAHAQLCKHIYENWQDIEYISANTISRVRPEFYEVDKRIVVMNYDDPIVKDRKFNDITFGKKYIVNADIASCFDSIYSHSIPWAIKGYEFAKNNRGENEWFNQFDKFLRTTKRCETNGMPIGPATSSICLEIILARVDSRLHDLGFEHERYVDDFCCYCSTKEQADEFIIKLSELLAEYRLSLNLRKTTIIELPIASTDDWIVELNSLCIDRYNADGDLVLIGAKEAINIINKAVFLSQSHKDGSVIKFAVGFLVKKLADTAYQDVFECLLSLSFHYPILIPYLSILLGRGNLEAQHYVDKFQMIIEENALHKRSDGMAWPLHIFREHNIEPTQEIVDRVLETKDCVAITILQDICPDNENIRQFVVDISNDLDIKKDEYWLLLYQSYLLGHINNPYRDRCFIVLKDYGVNFFKTDSRTKFEMRCDNVGAVWAFKELEEIKQPQAKAVNI”, the “soluble on expression in E. coli” value is reported as “not soluble”. In the case of “MGSDKIHHHHHHMKVLLTRPQGRNQAMEEQLSLRDVAYLVTPLLSVVETTEQLNPTHLNNTDNLLFISSNAVDFAAQKLQQQFPTHCRYFAVGQATADSLAQYNINAFTSPEHSQDSEGLLSLAQLQDVDKQSFIIVRGLGGRETLAEQLQLRGANVNYWQVYQRAIPNLDGKAITQQWKSFGIDTIVVTSGEILSNLVELVPKELFAWLRACHIIVPSNRVELQAKAMGLSHISNANGANTQAILASLAL”, the “soluble on expression in E. coli” value is reported as “not soluble”. With “MGSDKIHHHHHHMKVLVTGATGFIGRQVVHRLREAGAELRLASRHPERLGPGQDAMRMPDVDAPTAAFLALARGVTDVVHCAGLNNDEGNATEADFRAANAELSARLAQAAAEQASGRFIQLSSIRAVIGARVSATIDEDTIPDPQCAYGRSKREAEIRVLDAYASHGRSDATVLRLPPVYGTGMQGNLATLMRMADTGLPLPTGALTGTRSLLSAQSTAGAIWHLLSLSGRLRPIHVASDVPPVSIADIVDAFRDGFGRPTRLMAVPAGPLRIAAILLGKRTSWDSLTASQICDPSLLVSEGWLPETGTLERLAEIARLGDAQSPPLR” the “soluble on expression in E. coli” value was “not soluble”. For “MGSDKIHHHHHHMKVLVTGHRGYIGAVLTPMLHQRDHDVTGLDSDIFRSCTFEGTLDDTPTMEEDVRDIVIDDLAGFDAVIHLAGLSNDPLGDYRPNLTQQINCEASVTLARLAKRAGVPRFLFASSCSNYGAAGSGFLTESAAFNPVTPYGISKVEVEHAVAPMADECFSPTFLRASTAYGLSPRIRFDLVLNNLTAWAFTTGQIYLKSDGSPWRPIVHVEDIARAYIAALEADRELVHNQAFNVGLTTENYQVREIADIVQAIVPNSRIEFAADAGPDTRCYRVDCNYIGRRLHAFKPQWTARRGVEQLYEAFCSVGLSLEDFEGERFKRIAHVKKLIRNGELDEDLRRVSVPTMALAV”, the “soluble on expression in E. coli” value was “not soluble”. In the case of “MGSDKIHHHHHHMKVVPAQRCVYSFSANMAPVEEVYPGEQVVFETLDALGGSYDKIDFSKVNPATGPVFVNGVKPGDTLKVRIKRIELPRRGMIVTGKGFGVLGDEVEGFHTKELEIEKWAVLFDGVRIPIHPMVGVIGVAPQEGEYPTGTAHRHGGNMDTKEITENVTVHLPVFQEGALLALGDVHATMGDGEVCVSACEVPAKVVVEIDVSKEEIKWPVVETNDAYYIIVSLPDIEEALKEVTRETVWFIQRRKTIPFTDAYMLASLSVDVGISQLVNPAKTAKARIPKYIFTGV”, the “soluble on expression in E. coli” value is reported as “soluble”. With “MGSDKIHHHHHHMLADLPIALNPHEPTSIPTQLTEQIRRLVARGILTPGDPLPSSRSLSTQLGVSRGSVVTAYDQLAGEGYLSTARGSGTTINPDLHLLKPVEIEKKETSRSVPPPLLNLSPGVPDTATLADSAWRAAWREACAKPPTHSPEQGLLRLRIEIADHLRQMRGLMVEPEQIIVTAGAREGLSLLLRTMDAPARIGVESPGYPSLRRIPQVLGHETIDVPTDESGLVPRALPHDLNALLVTPSHQYPYGGSLPADRRTALVAWAEANDALLIEDDFDSELRYVGMPLPPLRALAPDRTILLGTFSSVITPQVACGYLIAPTPQARVLATLRGILGQPVGAITQHALASYLASGALRRRTQRLRRLYRHRRSIVQDTLGDLPNTQLRPINGGLHAVLLCDKPQDLVVTTLASRGLNVTALSHYWGGTGADNGIVFGFGSHDEDTLRWVLAEISDAVSLG” the “soluble on expression in E. coli” value was “not soluble”. In the case of “MGSDKIHHHHHHMLDPSLLGHRFRRRPWAMFEVLTPLHIGNGNELTPVDFYPLGDRIIVLDTEKLINDLLRLGVEVEELLDFLRNPPGSLYLWRGYLEKLHLDPRNYARYSLRIRGELGRESSRIKEFIKIKGKPYIPGTSLKGAIRTAVLYKVLKDCGDVPTVVEALGKYGKTTGNIIRAITHPGNQDLLDYYLFYLGRGNVRGKQADDILEAIVFGFEAERRFRYEPKRDPMKALIVRDSRLIPLDNLSVYEVRVVGWGSSIPIWVEALDPGTRFEAEVKVDRELLRIGSDYFNGLLWHCLAGEDFEEFVWKAVEEFYGELAKLDNVKERDVIRLGWGSGWISMTVGILLMRKRGWERVRRKLGLGKNPHTNKIVERFPKTKRLANGQPMGWIKI”, the “soluble on expression in E. coli” value is reported as “not soluble”. In the case of “MGSDKIHHHHHHMLEPQDQKKLDELFSSMQEANGCFLGYPFAKDFDYEPLWRFMSLTGNNLGDPFEPGTYRVNSHAFECDVVDFFARLFRACSCEVWGYVTNGGTEGNIYGLYLARELYPNAVAYFSQDTHYSVSKGVRLLRLEHSVVRSQSNGEINYDDLAQKATRYRTRPAVVVANIGTTMKEGKDDTLKIRAVLHDVGISAIYVHSDAALCGPYAPLLNPKPAFDFADGADSITLSGHKFLGAPMPCGVVLSHKLHVQRVMRNIDYIGSSDTTLSGSRNAFTPIILWYAIRSLGIEGIKQTFQQCERLAAYTADELNVRGVSAWRNPNALTVVLPPVEDSIKTKWQIATQDVSHLVVTPGTTKQQADALIETISNRNR”, the “soluble on expression in E. coli” value is reported as “not soluble”. In the case of “MGSDKIHHHHHHMLERYQGEDGRRLRVEAALDSKLAKGNQALAEAIADVATLRQFKAGQALIEQGGDDNQVYILISGSCDVIVNAKVVNRRGPGDHVGEMAAIQPAQRRSATIMATEQVLAFELPEPVFANLAATYPDIYRLIAKDLARRLLQRNAVTGTPRKRIRVFVISSVEALPIARAIQTAFEYDPFTVIVWTDGVFKVANYTLQSLEDEIDNSDFAIAIAHPDDKVESRQAQWPQPRDNVIFELGLFMGRLGRARAILMEPRDEKVKLPSDLAGVTTIGYRFDPDGDTQAALAPACNRLRNHIVELGLAVG”, the “soluble on expression in E. coli” value is reported as “not soluble”. With “MGSDKIHHHHHHMLGKTANGLFWMSRYLERAENTARLIETGQRIALTRLGSAEDEWVSILQSAGSLGGFREAYDTHGQDAAVDWMLRGKDNPSSIMSSIASARQNARLVRAAITGEVWEAINATYMTASDLLARKVSARDLPDVLASIRQHTALMRGMVHGTMLRNDIYDFLRIGTFLERADNTARILDVKYYVLLPSVSAVGSSIDNVQWESILRSVSARGGFRMEYGADGGPQEIAHFLIFDKRMPRSLAFCVSKIKDNLRYLNAGQPTPSPSQELVTHLENTYLSHGIEEVFDYGLHEFIEKMLELLLELAHQIQLDYRFYE” the “soluble on expression in E. coli” value was “not soluble”. In the case of “MGSDKIHHHHHHMLIEKELSELTVGHYVVKIIQQEGCFSLTAAGHIKSKAVINHLKSKNVHRVLIDDSKTLLSSSHEKSATVDAPSIVKNKELKHAKAIFDQSKSIQKKLFHDALSGSCLDLSPVVEVTNKSIDAIFNSPDSLACMLNIREKDEYLLEHSVAVSVYITIFSRYLDLERHIIEQLSIGAFLHDIGKIKIPDKILNKPGKLTVDEFTIMKTHANHSIAIIKETPGISALSLEVAALHHEKLDGSGYPFQVDGEDISQYGRMIAICDIFDALTATRVYKEGFTHGKAFSILRELAKQGQLDASLVDHFIKCVGVFPVGSLVQLKSNKLALVQERNDKDPINPQVHSFYSVKLNQFLNKQEIDLSGSEDSIVKSVRAEEFDLDMKQIVDMLLMEG”, the “soluble on expression in E. coli” value is reported as “not soluble”. With “MGSDKIHHHHHHMLILYQFERTWGNPNLSHFCCKTETYLRMAGIEYAIKTTLPLFAPKGKLPYIKDGNIKLADSRFIIRHLKNRYKDLDEGLNPAEIALSLAMQRLIEEHLFWATMYTRWQYTDVNWQVNKKAIFDVLPPAIRDVAAVIYRYRIRRQIYGHGMGRHKPEEIFELGMQDIDALSACLGDKKYFLGDQPTTLDASAFGFLINTIACPIESPLKEYGLSKENLGDYIDRIKMQYYPDLQ” the “soluble on expression in E. coli” value was “not soluble”.
